Experimental data: article PMC9482650, “Quantitative fragmentomics allow affinity mapping of interactomes” (Nature Communications, 2022)

How the values were obtained:
Experiment in all cases: holdup assay
Set-up in all cases: key: below the threshold = too weak to quantify, mostly under pKd 3.1 to 4
APBA2_1, Q99767 = biological target: T1, APBA2_1, Q99767
T1 sequence (Q99767 563-664, limits assumed, looked up): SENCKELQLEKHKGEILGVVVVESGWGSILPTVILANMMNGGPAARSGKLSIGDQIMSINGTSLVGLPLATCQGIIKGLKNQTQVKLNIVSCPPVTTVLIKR

APBA3_1, O96018 = biological target: T2, APBA3_1, O96018
T2 sequence (O96018 389-490, limits assumed, looked up): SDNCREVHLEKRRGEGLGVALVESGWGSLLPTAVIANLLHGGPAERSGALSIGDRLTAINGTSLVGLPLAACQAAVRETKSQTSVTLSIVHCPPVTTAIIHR

DFNB31_3, Q9P202 = biological target: T3, DFNB31_3, Q9P202
T3 sequence (Q9P202 811-907, limits assumed, looked up): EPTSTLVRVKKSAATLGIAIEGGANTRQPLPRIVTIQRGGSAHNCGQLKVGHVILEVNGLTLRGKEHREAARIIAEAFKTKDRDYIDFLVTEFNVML

DLG2_3, Q15700 = biological target: DLG2_3, Q15700
DLG4_2, P78352 = biological target: DLG4_2, P78352
Sequence of DLG4_2, P78352 (P78352 155-259): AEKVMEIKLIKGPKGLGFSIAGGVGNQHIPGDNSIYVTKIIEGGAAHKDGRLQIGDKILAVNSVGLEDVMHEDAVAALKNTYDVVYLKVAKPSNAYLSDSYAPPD

FRMPD2_2, Q68DX3 = biological target: FRMPD2_2, Q68DX3
Sequence of FRMPD2_2, Q68DX3 (Q68DX3 944-1038): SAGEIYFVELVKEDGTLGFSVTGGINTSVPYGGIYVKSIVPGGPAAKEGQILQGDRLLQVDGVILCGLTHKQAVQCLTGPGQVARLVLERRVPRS

FRMPD2_3, Q68DX3 = biological target: FRMPD2_3, Q68DX3
Sequence of FRMPD2_3, Q68DX3 (Q68DX3 1073-1166): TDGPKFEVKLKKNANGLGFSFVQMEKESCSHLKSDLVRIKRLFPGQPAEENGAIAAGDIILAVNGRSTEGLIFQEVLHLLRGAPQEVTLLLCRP

GIPC2, Q8TF65 = biological target: GIPC2, Q8TF65
Sequence of GIPC2, Q8TF65 (Q8TF65 112-203): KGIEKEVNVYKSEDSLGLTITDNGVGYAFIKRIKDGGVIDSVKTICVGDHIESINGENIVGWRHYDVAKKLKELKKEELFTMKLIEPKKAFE

GORASP1, Q9BQQ3 = biological target: GORASP1, Q9BQQ3
Sequence of GORASP1, Q9BQQ3 (Q9BQQ3 1-208): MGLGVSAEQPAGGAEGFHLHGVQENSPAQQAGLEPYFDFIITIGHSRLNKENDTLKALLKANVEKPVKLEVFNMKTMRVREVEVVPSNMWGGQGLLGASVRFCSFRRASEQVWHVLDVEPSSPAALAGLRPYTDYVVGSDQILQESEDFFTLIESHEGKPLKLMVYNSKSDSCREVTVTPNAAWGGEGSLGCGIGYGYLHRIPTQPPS

GRIP1_2, Q9Y3R0 = biological target: T4, GRIP1_2, Q9Y3R0
T4 sequence (Q9Y3R0 145-248, limits assumed, looked up): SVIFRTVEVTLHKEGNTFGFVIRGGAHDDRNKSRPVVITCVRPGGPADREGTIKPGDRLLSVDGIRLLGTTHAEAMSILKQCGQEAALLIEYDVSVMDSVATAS

GRIP2_7, Q9C0E4 = biological target: GRIP2_7, Q9C0E4
Sequence of GRIP2_7, Q9C0E4 (Q9C0E4 934-1023): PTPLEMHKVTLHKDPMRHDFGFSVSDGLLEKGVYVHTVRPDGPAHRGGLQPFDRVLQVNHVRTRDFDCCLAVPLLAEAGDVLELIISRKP

Inadl_1, Q8NI35 = biological target: Inadl_1, Q8NI35
Sequence of Inadl_1, Q8NI35 (Q8NI35 113-229): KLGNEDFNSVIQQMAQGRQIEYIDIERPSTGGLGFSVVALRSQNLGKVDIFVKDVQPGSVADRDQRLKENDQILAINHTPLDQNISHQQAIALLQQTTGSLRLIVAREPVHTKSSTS

Inadl_2, Q8NI35 = biological target: Inadl_2, Q8NI35
Sequence of Inadl_2, Q8NI35 (Q8NI35 238-335): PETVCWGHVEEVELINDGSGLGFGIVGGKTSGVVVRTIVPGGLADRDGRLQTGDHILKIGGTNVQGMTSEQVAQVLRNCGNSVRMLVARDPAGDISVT

MAGI2_6, Q86UL8 = biological target: MAGI2_6, Q86UL8
Sequence of MAGI2_6, Q86UL8 (Q86UL8 1141-1229): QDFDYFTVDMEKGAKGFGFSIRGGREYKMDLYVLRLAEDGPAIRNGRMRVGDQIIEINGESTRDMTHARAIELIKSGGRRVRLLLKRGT

NHERF4_2, Q86UT5 = biological target: NHERF4_2, Q86UT5
Sequence of NHERF4_2, Q86UT5 (Q86UT5 220-308): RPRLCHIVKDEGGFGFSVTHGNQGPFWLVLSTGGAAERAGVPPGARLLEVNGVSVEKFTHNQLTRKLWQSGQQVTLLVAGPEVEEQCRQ

PDZD7_3, Q9H5P4 = biological target: T5, PDZD7_3, Q9H5P4
T5 sequence (Q9H5P4 857-944, limits assumed, looked up): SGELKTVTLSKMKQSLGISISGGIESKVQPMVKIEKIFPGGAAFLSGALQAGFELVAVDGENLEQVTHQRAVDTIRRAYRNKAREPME

PDZRN3_1, Q9UPQ7 = biological target: T6, PDZRN3_1, Q9UPQ7
T6 sequence (Q9UPQ7 244-349, limits assumed, looked up): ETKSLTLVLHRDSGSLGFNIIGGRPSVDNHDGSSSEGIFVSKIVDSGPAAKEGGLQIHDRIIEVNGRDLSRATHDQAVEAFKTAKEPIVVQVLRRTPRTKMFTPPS

PDZRN4_1, Q6ZMN7 = biological target: PDZRN4_1, Q6ZMN7
Sequence of PDZRN4_1, Q6ZMN7 (Q6ZMN7 213-318): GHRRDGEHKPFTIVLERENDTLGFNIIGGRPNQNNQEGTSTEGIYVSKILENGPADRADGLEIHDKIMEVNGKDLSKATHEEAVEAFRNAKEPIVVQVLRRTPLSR

PICK1, Q9NRD5 = biological target: PICK1, Q9NRD5
Sequence of PICK1, Q9NRD5 (Q9NRD5 17-115): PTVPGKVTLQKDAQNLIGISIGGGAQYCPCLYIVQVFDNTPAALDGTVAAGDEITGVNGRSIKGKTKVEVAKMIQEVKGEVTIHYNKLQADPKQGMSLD

PTPN13_1, Q12923 = biological target: T7, PTPN13_1, Q12923
T7 sequence (Q12923 1088-1188, limits assumed, looked up): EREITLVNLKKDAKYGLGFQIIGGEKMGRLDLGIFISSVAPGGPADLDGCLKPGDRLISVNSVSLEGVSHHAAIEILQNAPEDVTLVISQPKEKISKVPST

PTPN3, P26045 = biological target: PTPN3, P26045
Sequence of PTPN3, P26045 (P26045 505-587): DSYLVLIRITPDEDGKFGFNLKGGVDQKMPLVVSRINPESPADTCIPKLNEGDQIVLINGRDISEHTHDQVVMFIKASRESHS

SCRIB_2, Q14160 = biological target: SCRIB_2, Q14160
Sequence of SCRIB_2, Q14160 (Q14160 857-960): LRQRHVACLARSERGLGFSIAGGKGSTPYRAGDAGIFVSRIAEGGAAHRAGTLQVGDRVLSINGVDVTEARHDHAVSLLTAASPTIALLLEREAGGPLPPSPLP

SNTB1, Q13884 = biological target: T8, SNTB1, Q13884
T8 sequence (Q13884 107-205, limits assumed, looked up): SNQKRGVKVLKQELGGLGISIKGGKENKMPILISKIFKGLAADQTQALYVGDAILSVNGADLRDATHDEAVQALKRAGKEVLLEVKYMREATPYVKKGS

SYNJ2BP, P57105 = biological target: T9, SYNJ2BP, P57105
T9 sequence (P57105 8-110, limits assumed, looked up): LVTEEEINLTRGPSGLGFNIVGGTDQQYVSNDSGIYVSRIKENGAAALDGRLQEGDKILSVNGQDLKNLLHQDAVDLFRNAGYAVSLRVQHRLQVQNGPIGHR

TIAM2, Q8IVF5 = biological target: T10, TIAM2, Q8IVF5
T10 sequence (Q8IVF5 885-986, limits assumed, looked up): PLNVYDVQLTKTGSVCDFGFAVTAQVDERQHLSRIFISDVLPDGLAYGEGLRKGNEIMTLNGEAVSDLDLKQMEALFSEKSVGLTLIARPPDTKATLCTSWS

TJP3_3, O95049 = biological target: T11, TJP3_3, O95049
T11 sequence (O95049 375-456, limits assumed, looked up): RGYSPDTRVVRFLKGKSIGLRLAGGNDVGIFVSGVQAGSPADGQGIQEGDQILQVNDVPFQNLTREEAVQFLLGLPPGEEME

[1] = plain residues with an end cap or a label only (N-terminal biotin on a linker: ado-ado)
[2] = plain residues with an end cap or a label only (N-terminal biotin on a linker: ttds)
[3] = plain residues with an end cap or a label only (N-terminal biotin on a linker: ahx)

SQDPKKPSRV [CBY2, Q8NA61]
pKd (APBA2_1, Q99767; [1]): below the threshold
pKd (APBA3_1, O96018; [1]): below the threshold
pKd (DFNB31_3, Q9P202; [1]): below the threshold
pKd (DLG2_3, Q15700; [1]): below the threshold
pKd (DLG4_2, P78352; [1]): 3.49
pKd (FRMPD2_2, Q68DX3; [1]): below the threshold
pKd (FRMPD2_3, Q68DX3; [1]): below the threshold
pKd (GIPC2, Q8TF65; [1]): below the threshold
pKd (GORASP1, Q9BQQ3; [1]): below the threshold
pKd (GRIP1_2, Q9Y3R0; [1]): below the threshold
pKd (GRIP2_7, Q9C0E4; [1]): below the threshold
pKd (Inadl_1, Q8NI35; [1]): below the threshold
pKd (Inadl_2, Q8NI35; [1]): below the threshold
pKd (MAGI2_6, Q86UL8; [1]): below the threshold
pKd (NHERF4_2, Q86UT5; [1]): below the threshold
pKd (PDZD7_3, Q9H5P4; [1]): below the threshold
pKd (PDZRN3_1, Q9UPQ7; [1]): 3.56
pKd (PDZRN4_1, Q6ZMN7; [1]): below the threshold
pKd (PICK1, Q9NRD5; [1]): 4.21
pKd (PTPN13_1, Q12923; [1]): below the threshold
pKd (PTPN3, P26045; [1]): below the threshold
pKd (SCRIB_2, Q14160; [1]): below the threshold
pKd (SNTB1, Q13884; [1]): below the threshold
pKd (SYNJ2BP, P57105; [1]): 3.66
pKd (TIAM2, Q8IVF5; [1]): below the threshold
pKd (TJP3_3, O95049; [1]): below the threshold

PSRDRKETSI [RALBP1, Q15311]
pKd (APBA2_1, Q99767; [2]): below the threshold
pKd (APBA3_1, O96018; [2]): below the threshold
pKd (DFNB31_3, Q9P202; [2]): below the threshold
pKd (DLG2_3, Q15700; [2]): 4.64
pKd (DLG4_2, P78352; [2]): 4.58
pKd (FRMPD2_2, Q68DX3; [2]): 3.31
pKd (FRMPD2_3, Q68DX3; [2]): below the threshold
pKd (GIPC2, Q8TF65; [2]): 3.58
pKd (GORASP1, Q9BQQ3; [2]): 3.38
pKd (GRIP1_2, Q9Y3R0; [2]): 3.45
pKd (GRIP2_7, Q9C0E4; [2]): below the threshold
pKd (Inadl_1, Q8NI35; [2]): below the threshold
pKd (Inadl_2, Q8NI35; [2]): below the threshold
pKd (MAGI2_6, Q86UL8; [2]): below the threshold
pKd (NHERF4_2, Q86UT5; [2]): below the threshold
pKd (PDZD7_3, Q9H5P4; [2]): 4.89
pKd (PDZRN3_1, Q9UPQ7; [2]): 4.37
pKd (PDZRN4_1, Q6ZMN7; [2]): 4.57
pKd (PICK1, Q9NRD5; [2]): below the threshold
pKd (PTPN13_1, Q12923; [2]): below the threshold
pKd (PTPN3, P26045; [2]): 4.75
pKd (SCRIB_2, Q14160; [2]): 3.75
pKd (SNTB1, Q13884; [2]): 3.97
pKd (SYNJ2BP, P57105; [2]): 4.7
pKd (TIAM2, Q8IVF5; [2]): below the threshold
pKd (TJP3_3, O95049; [2]): below the threshold

VNENQKEYFF [CNTNAP4, Q9C0A0]
pKd (APBA2_1, Q99767; [3]): below the threshold
pKd (APBA3_1, O96018; [3]): below the threshold
pKd (DFNB31_3, Q9P202; [3]): below the threshold
pKd (DLG2_3, Q15700; [3]): below the threshold
pKd (DLG4_2, P78352; [3]): below the threshold
pKd (FRMPD2_2, Q68DX3; [3]): below the threshold
pKd (FRMPD2_3, Q68DX3; [3]): below the threshold
pKd (GIPC2, Q8TF65; [3]): below the threshold
pKd (GORASP1, Q9BQQ3; [3]): below the threshold
pKd (GRIP1_2, Q9Y3R0; [3]): below the threshold
pKd (GRIP2_7, Q9C0E4; [3]): 5.77
pKd (Inadl_1, Q8NI35; [3]): 3.72
pKd (Inadl_2, Q8NI35; [3]): 5.4
pKd (MAGI2_6, Q86UL8; [3]): 3.51
pKd (NHERF4_2, Q86UT5; [3]): below the threshold
pKd (PDZD7_3, Q9H5P4; [3]): below the threshold
pKd (PDZRN3_1, Q9UPQ7; [3]): below the threshold
pKd (PDZRN4_1, Q6ZMN7; [3]): below the threshold
pKd (PICK1, Q9NRD5; [3]): below the threshold
pKd (PTPN13_1, Q12923; [3]): below the threshold
pKd (PTPN3, P26045; [3]): 4.55
pKd (SCRIB_2, Q14160; [3]): below the threshold
pKd (SNTB1, Q13884; [3]): below the threshold
pKd (SYNJ2BP, P57105; [3]): below the threshold
pKd (TIAM2, Q8IVF5; [3]): 4.62
pKd (TJP3_3, O95049; [3]): below the threshold

HSATSVHTSV [MTMR1, Q13613]
pKd (APBA2_1, Q99767; [3]): below the threshold
pKd (APBA3_1, O96018; [3]): below the threshold
pKd (DFNB31_3, Q9P202; [3]): below the threshold
pKd (DLG2_3, Q15700; [3]): 4.44
pKd (DLG4_2, P78352; [3]): 4.7
pKd (FRMPD2_2, Q68DX3; [3]): below the threshold
pKd (FRMPD2_3, Q68DX3; [3]): below the threshold
pKd (GIPC2, Q8TF65; [3]): below the threshold
pKd (GORASP1, Q9BQQ3; [3]): below the threshold
pKd (GRIP1_2, Q9Y3R0; [3]): below the threshold
pKd (GRIP2_7, Q9C0E4; [3]): below the threshold
pKd (Inadl_1, Q8NI35; [3]): below the threshold
pKd (Inadl_2, Q8NI35; [3]): below the threshold
pKd (MAGI2_6, Q86UL8; [3]): 3.66
pKd (NHERF4_2, Q86UT5; [3]): below the threshold
pKd (PDZD7_3, Q9H5P4; [3]): 3.87
pKd (PDZRN3_1, Q9UPQ7; [3]): below the threshold
pKd (PDZRN4_1, Q6ZMN7; [3]): below the threshold
pKd (PICK1, Q9NRD5; [3]): below the threshold
pKd (PTPN13_1, Q12923; [3]): below the threshold
pKd (PTPN3, P26045; [3]): 4.16
pKd (SCRIB_2, Q14160; [3]): 3.95
pKd (SNTB1, Q13884; [3]): 3.78
pKd (SYNJ2BP, P57105; [3]): 4.42
pKd (TIAM2, Q8IVF5; [3]): below the threshold
pKd (TJP3_3, O95049; [3]): below the threshold
